Molecular target: EGFR on HeLa cells (UniProt P00533 25-1210, limits assumed)
Test: cell-based or functional assay

B1: GOMP001_bsAb_032 (bispecific antibody, human IgG1, kappa, L234A L235A)
heavy 1: QGQLVESGGGVVQPGRSLRLSCAASGFTFRGFGMHWVRKAPGKGLEWVAIIYYDGKNKYYADEVKGRFTISRDNSKNTLYLQMNSLRAEDTAVYYCAKGGGYNWFDPWGQGTLVTVSSASTKGPSVFPLAPSSKSTSGGTAALGCLVADYFPEPVTVSWNSGALTSGVHTFPAVLQSSGLYSLSSVVTVPSSSLGTQTYICNVNHKPSNTKVDEKVEPKSCDKTHTCPPCPAPEAAGGPSVFLFPPKPKDTLMISRTPEVTCVVVDVSHEDPEVKFNWYVDGVEVHNAKTKPREEQYNSTYRVVSVLTVLHQDWLNGKEYKCKVSNKALPAPIEKTISKAKGQPREPQVYTLPPSREEMTDNQVSLTCLVKGFYPSDIAVEWESNGQPENNYKTTPPVLMSDGSFFLASKLTVDKSRWQQGNVFSCSVMHEALHNHYTQKSLSLSPG
light 1: RIQMTQSPSSLSASVGDRVTITCRASQSISTYLNWYQDKPGKAPKLLIYSASSLQSGVPSRFSGSGSGTDFTLTISNLQPEDFAIYYCQRSYSPPFTFGPGTKLDIRRTVAAPSVFIFPPSDKQLKSGTARVVCLLNNFYPREAKVQWKVDNALQSGNSQESVTEQDSKDSTYSLSSTLTLSKADYEKHKVYACEVTHQGLSSPVTKSFNRGEC
heavy 2: QVQLVQSGAEVKKPGASVKVSCKASGYTFTSHWMHWVRYAPGQGLEWIGEFNPSNGRTNYNEKFKSKATMTVDTSTNTAYMELSSLRSEDTAVYYCASRDYDYDGRYFDYWGRGTLVTVSSASTKGPSVFPLAPSSKSTSGGTAALGCLVKDYFPEPVTVSWNSGALTSGVHTFPAVLQSSGLYSLSSVVTVPSSSLGTQTYICNVNHKPSNTKVDKKVEPKSCDKTHTCPPCPAPEAAGGPSVFLFPPKPKDTLMISRTPEVTCVVVDVSHEDPEVKFNWYVDGVEVHNAKTKPREEQYNSTYRVVSVLTVLHQDWLNGKEYKCKVSNKALPAPIEKTISKAKGQPRRPRVYTLPPSREEMTKNQVSLVCLVKGFYPSDIAVEWESNGQPENNYKTTPPVLDSDGSFFLYSVLTVDKSRWQQGNVFSCSVMHEALHNHYTQKSLSLSPG
light 2: DIQMTQSPSSLSASVGDRVTITCSASSSVTYMYWYQRKPGDAPKLLIYDTSNLASGVPSRFSGSGSGTDYTFTISSLQPEDIATYYCQQWSSHIFTFGQGTKVEIKRTVAAPSVFIFPPSDEQLKSGTASVVCLLNNFYPREAKVQWKVDNALQSGNSQESVTEQDSKDSTYSLSSTLTLSKADYEKHKVYACEVTHQGLSSPVTKSFNRGEC
For B1, the Max killing % was 98.1% and the “X… HeLa EC50” value was 0.061 nM.

B2: GOMP001_bsAb_037 (bispecific antibody, human IgG1, kappa, L234A L235A)
heavy 1: QVQLVQSGAEVKKPGASVKVSCKASGYTFTSHWMHWVRKAPGQGLEWIGEFNPSNGRTNYNEEFKSKATMTVDTSTNTAYMELSSLRSEDTAVYYCASRDYDYDGRYFDYWGQGTLVTVSSASTKGPSVFPLAPSSKSTSGGTAALGCLVADYFPEPVTVSWNSGALTSGVHTFPAVLQSSGLYSLSSVVTVPSSSLGTQTYICNVNHKPSNTKVDEKVEPKSCDKTHTCPPCPAPEAAGGPSVFLFPPKPKDTLMISRTPEVTCVVVDVSHEDPEVKFNWYVDGVEVHNAKTKPREEQYNSTYRVVSVLTVLHQDWLNGKEYKCKVSNKALPAPIEKTISKAKGQPREPQVYTLPPSREEMTDNQVSLTCLVKGFYPSDIAVEWESNGQPENNYKTTPPVLMSDGSFFLASKLTVDKSRWQQGNVFSCSVMHEALHNHYTQKSLSLSPG
light 1: RIQMTQSPSSLSASVGDRVTITCSASSSVTYMYWYQDKPGKAPKLLIYDTSNLASGVPSRFSGSGSGTDYTFTISSLQPEDIATYYCQQWSSHIFTFGQGTKVEIKRTVAAPSVFIFPPSDKQLKSGTARVVCLLNNFYPREAKVQWKVDNALQSGNSQESVTEQDSKDSTYSLSSTLTLSKADYEKHKVYACEVTHQGLSSPVTKSFNRGEC
heavy 2: EVQLVESGGVLVKTGGSLRLSCVASGFSFKKAWMNWVRYAPGKGLEWVGRIKRNSDGGAADYAARVKDRFTLSRDDSKNTLYLQMNSLKTEDTAVYYCTTLDSSSWYVGYYYMDVWGRGTTVTVSSASTKGPSVFPLAPSSKSTSGGTAALGCLVKDYFPEPVTVSWNSGALTSGVHTFPAVLQSSGLYSLSSVVTVPSSSLGTQTYICNVNHKPSNTKVDKKVEPKSCDKTHTCPPCPAPEAAGGPSVFLFPPKPKDTLMISRTPEVTCVVVDVSHEDPEVKFNWYVDGVEVHNAKTKPREEQYNSTYRVVSVLTVLHQDWLNGKEYKCKVSNKALPAPIEKTISKAKGQPRRPRVYTLPPSREEMTKNQVSLVCLVKGFYPSDIAVEWESNGQPENNYKTTPPVLDSDGSFFLYSVLTVDKSRWQQGNVFSCSVMHEALHNHYTQKSLSLSPG
light 2: DIHMTQSPSSVSASLGDRVTFTCRASQNINNWLAWYQRKPGDAPKLLIYTASSLQSGVPSRFSGSGSGTDFTLTISSLQPDDFATYYCQQAHSLPITFGQGTRLGIKRTVAAPSVFIFPPSDEQLKSGTASVVCLLNNFYPREAKVQWKVDNALQSGNSQESVTEQDSKDSTYSLSSTLTLSKADYEKHKVYACEVTHQGLSSPVTKSFNRGEC
In the case of B2, the Max killing % is reported as 83.6% and the “X… HeLa EC50” value is reported as 0.174 nM.

B3: GOMP001_bsAb_039 (bispecific antibody, human IgG1, kappa, L234A L235A)
heavy 1: QVQLVQSGAEVKKPGASVKVSCKASGYTFTSHWMHWVRKAPGQGLEWIGEFNPSNGRTNYNEEFKSKATMTVDTSTNTAYMELSSLRSEDTAVYYCASRDYDYDGRYFDYWGQGTLVTVSSASTKGPSVFPLAPSSKSTSGGTAALGCLVADYFPEPVTVSWNSGALTSGVHTFPAVLQSSGLYSLSSVVTVPSSSLGTQTYICNVNHKPSNTKVDEKVEPKSCDKTHTCPPCPAPEAAGGPSVFLFPPKPKDTLMISRTPEVTCVVVDVSHEDPEVKFNWYVDGVEVHNAKTKPREEQYNSTYRVVSVLTVLHQDWLNGKEYKCKVSNKALPAPIEKTISKAKGQPREPQVYTLPPSREEMTDNQVSLTCLVKGFYPSDIAVEWESNGQPENNYKTTPPVLMSDGSFFLASKLTVDKSRWQQGNVFSCSVMHEALHNHYTQKSLSLSPG
light 1: RIQMTQSPSSLSASVGDRVTITCSASSSVTYMYWYQDKPGKAPKLLIYDTSNLASGVPSRFSGSGSGTDYTFTISSLQPEDIATYYCQQWSSHIFTFGQGTKVEIKRTVAAPSVFIFPPSDKQLKSGTARVVCLLNNFYPREAKVQWKVDNALQSGNSQESVTEQDSKDSTYSLSSTLTLSKADYEKHKVYACEVTHQGLSSPVTKSFNRGEC
heavy 2: EVQLVESGGGLVKTGGSHRLSCVASGFSFKKAWMNWVRYAPGKGLEWVGRIKRNSDGGTTDYAARVKGRFILSRDDSKNTLYLQMNSLKTEDTAVYYCTTLDSSSWYVGYYYMDVWGRGTTVTVSSASTKGPSVFPLAPSSKSTSGGTAALGCLVKDYFPEPVTVSWNSGALTSGVHTFPAVLQSSGLYSLSSVVTVPSSSLGTQTYICNVNHKPSNTKVDKKVEPKSCDKTHTCPPCPAPEAAGGPSVFLFPPKPKDTLMISRTPEVTCVVVDVSHEDPEVKFNWYVDGVEVHNAKTKPREEQYNSTYRVVSVLTVLHQDWLNGKEYKCKVSNKALPAPIEKTISKAKGQPRRPRVYTLPPSREEMTKNQVSLVCLVKGFYPSDIAVEWESNGQPENNYKTTPPVLDSDGSFFLYSVLTVDKSRWQQGNVFSCSVMHEALHNHYTQKSLSLSPG
light 2: DIQMTQSPSSVSASVGDRVTITCRASQDINNWLAWYQRKPGDAPKILIYTASNLQSGVPSRFSGSGSGTDFTLTISSLQPEDFATYFCQQAHSLPITFGQGTRLEIKRTVAAPSVFIFPPSDEQLKSGTASVVCLLNNFYPREAKVQWKVDNALQSGNSQESVTEQDSKDSTYSLSSTLTLSKADYEKHKVYACEVTHQGLSSPVTKSFNRGEC
For B3, the Max killing % was 81.1% and the “X… HeLa EC50” value was 0.374 nM.

B4: GOMP001_bsAb_038 (bispecific antibody, human IgG1, kappa, L234A L235A)
heavy 1: EVQLVESGGVLVKTGGSLRLSCVASGFSFKKAWMNWVRKAPGKGLEWVGRIKRNSDGGAADYAAEVKDRFTLSRDDSKNTLYLQMNSLKTEDTAVYYCTTLDSSSWYVGYYYMDVWGKGTTVTVSSASTKGPSVFPLAPSSKSTSGGTAALGCLVADYFPEPVTVSWNSGALTSGVHTFPAVLQSSGLYSLSSVVTVPSSSLGTQTYICNVNHKPSNTKVDEKVEPKSCDKTHTCPPCPAPEAAGGPSVFLFPPKPKDTLMISRTPEVTCVVVDVSHEDPEVKFNWYVDGVEVHNAKTKPREEQYNSTYRVVSVLTVLHQDWLNGKEYKCKVSNKALPAPIEKTISKAKGQPREPQVYTLPPSREEMTDNQVSLTCLVKGFYPSDIAVEWESNGQPENNYKTTPPVLMSDGSFFLASKLTVDKSRWQQGNVFSCSVMHEALHNHYTQKSLSLSPG
light 1: RIHMTQSPSSVSASLGDRVTFTCRASQNINNWLAWYQDKPGKAPKLLIYTASSLQSGVPSRFSGSGSGTDFTLTISSLQPDDFATYYCQQAHSLPITFGQGTRLGIKRTVAAPSVFIFPPSDKQLKSGTARVVCLLNNFYPREAKVQWKVDNALQSGNSQESVTEQDSKDSTYSLSSTLTLSKADYEKHKVYACEVTHQGLSSPVTKSFNRGEC
heavy 2: QVQLVQSGAEVKKPGASVKVSCKASGYTFTSHWMHWVRYAPGQGLEWIGEFNPSNGRTNYNEKFKSKATMTVDTSTNTAYMELSSLRSEDTAVYYCASRDYDYDGRYFDYWGRGTLVTVSSASTKGPSVFPLAPSSKSTSGGTAALGCLVKDYFPEPVTVSWNSGALTSGVHTFPAVLQSSGLYSLSSVVTVPSSSLGTQTYICNVNHKPSNTKVDKKVEPKSCDKTHTCPPCPAPEAAGGPSVFLFPPKPKDTLMISRTPEVTCVVVDVSHEDPEVKFNWYVDGVEVHNAKTKPREEQYNSTYRVVSVLTVLHQDWLNGKEYKCKVSNKALPAPIEKTISKAKGQPRRPRVYTLPPSREEMTKNQVSLVCLVKGFYPSDIAVEWESNGQPENNYKTTPPVLDSDGSFFLYSVLTVDKSRWQQGNVFSCSVMHEALHNHYTQKSLSLSPG
light 2: DIQMTQSPSSLSASVGDRVTITCSASSSVTYMYWYQRKPGDAPKLLIYDTSNLASGVPSRFSGSGSGTDYTFTISSLQPEDIATYYCQQWSSHIFTFGQGTKVEIKRTVAAPSVFIFPPSDEQLKSGTASVVCLLNNFYPREAKVQWKVDNALQSGNSQESVTEQDSKDSTYSLSSTLTLSKADYEKHKVYACEVTHQGLSSPVTKSFNRGEC
For B4, the Max killing % was 93.6% and the “X… HeLa EC50” value was 0.0331 nM.
